Assay results: article PMC6582323 (Nucleic Acids Research, 2019)

Tests used:
[1] = target: T1, Cyanothece PCC7424 McdA(D38A) (Cyanothece sp. PCC 7424, UniProt B7KMS4 1-258, D38A); assay: fluorescence polarisation
T1 sequence (looked up): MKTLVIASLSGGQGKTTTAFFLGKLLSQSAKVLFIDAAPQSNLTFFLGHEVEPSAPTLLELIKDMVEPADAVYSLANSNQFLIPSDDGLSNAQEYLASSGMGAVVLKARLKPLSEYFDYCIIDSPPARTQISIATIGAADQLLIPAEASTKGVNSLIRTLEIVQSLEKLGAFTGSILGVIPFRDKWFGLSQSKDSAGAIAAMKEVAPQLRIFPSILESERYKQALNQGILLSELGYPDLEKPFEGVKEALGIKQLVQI

crystal structure = target: the molecule itself; assay: crystal structure

Kd [1]: 1.1 µM
B1: Cyanothece PCC7424 McdB (wild type) (natural protein, Cyanothece sp. PCC 7424, UniProt B7KMS5 1-156, looked up)
chain: MSNNALDRLINKQKPKVPPRNDVVSESVSNDIKTQGQQELNTSLPPSDTKATPEEMPTSHESETSLSQDQKPKLSPDTFETVRNTIRIESEVDESLRQLCHEERITKETWLEAAYLYLCEKPEELAQVIQLAQERLSQRKAIADYKRAKTMQERFL
stoichiometry N (crystal structure): 2
